T1: CCL3_HUMAN (Homo sapiens, UniProt P10147)
T1 sequence (P10147 24-92): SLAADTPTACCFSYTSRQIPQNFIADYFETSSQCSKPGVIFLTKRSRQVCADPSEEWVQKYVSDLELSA

T2: CCL17_HUMAN (Homo sapiens, UniProt Q92583)
T2 sequence (Q92583 24-94): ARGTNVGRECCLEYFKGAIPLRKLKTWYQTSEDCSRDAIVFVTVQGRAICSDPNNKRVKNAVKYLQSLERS

T3: CCL5_HUMAN (Homo sapiens, UniProt P13501)
T3 sequence (P13501 24-91): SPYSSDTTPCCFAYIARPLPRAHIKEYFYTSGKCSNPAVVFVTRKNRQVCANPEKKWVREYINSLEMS

T4: CCL8_HUMAN (Homo sapiens, UniProt P80075)
T4 sequence (P80075 24-99): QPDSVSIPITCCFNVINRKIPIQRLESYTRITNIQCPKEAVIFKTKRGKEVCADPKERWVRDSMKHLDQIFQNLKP

T5: CXCL8_HUMAN (Homo sapiens, UniProt P10145)
T5 sequence (P10145 21-99): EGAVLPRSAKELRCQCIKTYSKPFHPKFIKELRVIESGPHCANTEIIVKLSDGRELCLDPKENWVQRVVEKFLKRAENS

T6: CCL18_HUMAN (Homo sapiens, UniProt P55774)
T6 sequence (P55774 21-89): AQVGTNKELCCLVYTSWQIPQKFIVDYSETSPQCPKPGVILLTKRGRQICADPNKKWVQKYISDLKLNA

T7: CCL25_HUMAN (Homo sapiens, UniProt O15444)
T7 sequence (O15444 24-150): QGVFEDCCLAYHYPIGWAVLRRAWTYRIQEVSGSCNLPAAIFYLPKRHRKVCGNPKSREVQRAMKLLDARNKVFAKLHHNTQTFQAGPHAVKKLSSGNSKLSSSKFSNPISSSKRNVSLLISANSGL

B1: P1030_AMBPA: tick CKBP, Amblyomma parvum (protein, listed as Amblyomma parvum)
chain: GPPSIPGNESIPGCGDAGTTTAPEDNPKHYGTLTDKKGCTLPIIGTWMTAVDHQHLQGTRGERRGPTGKVNLPASCRKNCHGRQEILRDGIPCRKVVGNPKGSKKHLKSGCLRGKCLAGQCVNDGRRISCYVPRNITDTEPTPGLLAE
B2: P1215_AMBPA: tick CKBP, Amblyomma parvum (protein, listed as Amblyomma parvum)
chain: KTDTKNAAGELPPKVVIPGCEDPATTKAPLPDEPPYYGITIDKDGCQRKVLGSSQRQQRKVQNGRKLDGKKRGRRPVFVDLELTVDCKRKCNGTYSQLPDGENCLVSDGYPYGRWGTIKGGCYQGNCSSGQCHRGEKKVNCYLPKNITNDVPKSLNLAE
B3: P698_RHISA: tick CKBP, Rhipicephalus sanguineus (protein, listed as Rhipicephalus sanguineus)
chain: NEDDSSDYYDASPMNCSSMSVNSTMGWLSMNCTMSCNGTTFPLSNSTHCFHSYTNLTVQSRMETMTYNCSVGTCSNGTCVENGTTTTCW
B4: P1220_IXORI: tick CKBP, Ixodes ricinus (protein, listed as Ixodes ricinus)
chain: GSTPSAMKTEDILKVLGSTSSLENHTDSSHCRYQELLDITKNIENAGFLAINCQRSCPNGKQTMVEGYGCIFKIKHATKRGKVKVKEGSCRKGACVRGSTRPPWRLLVLLGESKEEEFL
B5: P1011_AMBTR: tick CKBP, Amblyomma triste (protein)
chain: EKDTPKNIPGCEDAGTTAAPPADNPKHYAVYTDKNGCTFKVIGTWMTKEDHRRLPVSLRRVRASSGRVKLPASCQKICKHSVKKFPEGTPCRLVTRDPIKGKNHIKNGCIRGYCSSGVCVSDNRSISCYVLPNNTELTSPSGSFAE
modifications: Amblyomma triste

Experiments:
Test in all cases: Yeast surface display (YSD) FACS binding
CCL3_HUMAN = molecular target: T1, CCL3_HUMAN
How it was run: (§1)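 Yeast clones displaying tick peptides were re-tested by FACS with labelled chemokine. Binding = % of peptide-expressing yeast above a background threshold set with streptavidin-Alexa647 alone; the mean percent shift was used where several clones were isolated. Confirmed binding ("YES") required >3-fold over background mean fluorescence intensity.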

CCL20_HUMAN = CCL20_HUMAN (Homo sapiens, UniProt P78556)
How it was run: as §1

CCL17_HUMAN = molecular target: T2, CCL17_HUMAN
How it was run: as §1

CCL11_HUMAN = CCL11_HUMAN (Homo sapiens, UniProt P51671)
How it was run: as §1

CCL5_HUMAN = molecular target: T3, CCL5_HUMAN
How it was run: as §1

CCL8_HUMAN = molecular target: T4, CCL8_HUMAN
How it was run: as §1

CXCL8_HUMAN = molecular target: T5, CXCL8_HUMAN; design: label (chemical); settings: yeast surface display
How it was run: (§2)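 Yeast clones displaying tick peptides were re-tested by FACS with labelled chemokine detected by streptavidin-Alexa conjugate. Binding was scored as % of peptide-expressing cells above a background set with streptavidin-Alexa alone, averaged over independent clones. In the screen tables, >3-fold over background mean fluorescence intensity was scored as binding.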

CXCL12_HUMAN = CXCL12_HUMAN (Homo sapiens, UniProt P48061); settings: yeast surface display
How it was run: as §2

CCL18_HUMAN = molecular target: T6, CCL18_HUMAN
How it was run: as §1

CCL25_HUMAN = molecular target: T7, CCL25_HUMAN
How it was run: as §1

CCL11_HUMAN, sequence (P51671 24-97): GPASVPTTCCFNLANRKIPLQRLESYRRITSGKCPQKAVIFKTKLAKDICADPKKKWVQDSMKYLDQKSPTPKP
CXCL12_HUMAN, sequence (P48061 22-93): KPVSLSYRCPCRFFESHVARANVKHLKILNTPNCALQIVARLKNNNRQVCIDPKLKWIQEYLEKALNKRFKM
CCL20_HUMAN, sequence (P78556 27-96): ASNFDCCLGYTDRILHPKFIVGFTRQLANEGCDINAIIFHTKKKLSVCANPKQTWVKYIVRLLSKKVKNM

Molecule	Binding to CCL3_HUMAN, YSD (CCL3_HUMAN)	Binding to CCL20_HUMAN, YSD (CCL20_HUMAN)	Binding to CCL17_HUMAN, YSD (CCL17_HUMAN)	Binding to CCL11_HUMAN, YSD (CCL11_HUMAN)	Binding to CCL5_HUMAN, YSD (CCL5_HUMAN)	Binding to CCL8_HUMAN, YSD (CCL8_HUMAN)	Binding to CXCL8_HUMAN, YSD (CXCL8_HUMAN)	Binding to CXCL12_HUMAN, YSD (CXCL12_HUMAN)	Binding to CCL18_HUMAN, YSD (CCL18_HUMAN)	Binding to CCL25_HUMAN, YSD (CCL25_HUMAN)
B1	YES (An arbitrary threshold of >3 fold over background mean fluorescence intensity was chosen to describe confirmed re-tests. Where binding was detected data are indicated as “YES”)	YES (An arbitrary threshold of >3 fold over background mean fluorescence intensity was chosen to describe confirmed re-tests. Where binding was detected data are indicated as “YES”)	YES (An arbitrary threshold of >3 fold over background mean fluorescence intensity was chosen to describe confirmed re-tests. Where binding was detected data are indicated as “YES”)	YES (An arbitrary threshold of >3 fold over background mean fluorescence intensity was chosen to describe confirmed re-tests. Where binding was detected data are indicated as “YES”)	YES (An arbitrary threshold of >3 fold over background mean fluorescence intensity was chosen to describe confirmed re-tests. Where binding was detected data are indicated as “YES”)	YES (An arbitrary threshold of >3 fold over background mean fluorescence intensity was chosen to describe confirmed re-tests. Where binding was detected data are indicated as “YES”)	YES (An arbitrary threshold of >3 fold over background mean fluorescence intensity was chosen to describe confirmed re-tests. Where binding was detected data are indicated as “YES”)	–	–	–
B2	–	–	–	YES (An arbitrary threshold of >3 fold over background mean fluorescence intensity was chosen to describe confirmed re-tests. Where binding was detected data are indicated as “YES”)	YES (An arbitrary threshold of >3 fold over background mean fluorescence intensity was chosen to describe confirmed re-tests. Where binding was detected data are indicated as “YES”)	–	–	YES (An arbitrary threshold of >3 fold over background mean fluorescence intensity was chosen to describe confirmed re-tests. Where binding was detected data are indicated as “YES”)	YES (An arbitrary threshold of >3 fold over background mean fluorescence intensity was chosen to describe confirmed re-tests. Where binding was detected data are indicated as “YES”)	–
B3	–	–	–	–	YES (An arbitrary threshold of >3 fold over background mean fluorescence intensity was chosen to describe confirmed re-tests. Where binding was detected data are indicated as “YES”)	YES (An arbitrary threshold of >3 fold over background mean fluorescence intensity was chosen to describe confirmed re-tests. Where binding was detected data are indicated as “YES”)	–	–	–	–
B4	–	–	–	–	–	–	–	–	–	YES (An arbitrary threshold of >3 fold over background mean fluorescence intensity was chosen to describe confirmed re-tests. Where binding was detected data are indicated as “YES”)
B5	–	–	YES (An arbitrary threshold of >3 fold over background mean fluorescence intensity was chosen to describe confirmed re-tests. Where binding was detected data are indicated as “YES”)	YES (An arbitrary threshold of >3 fold over background mean fluorescence intensity was chosen to describe confirmed re-tests. Where binding was detected data are indicated as “YES”)	YES (An arbitrary threshold of >3 fold over background mean fluorescence intensity was chosen to describe confirmed re-tests. Where binding was detected data are indicated as “YES”)	–	–	–	YES (An arbitrary threshold of >3 fold over background mean fluorescence intensity was chosen to describe confirmed re-tests. Where binding was detected data are indicated as “YES”)	YES (An arbitrary threshold of >3 fold over background mean fluorescence intensity was chosen to describe confirmed re-tests. Where binding was detected data are indicated as “YES”)

Source: patent publication US20200247855A1, “THERAPY AND DIAGNOSTICS” (OXFORD UNIVERSITY INNOVATION LIMITED, priority 2017, published 2020)
